Experimental data taken from patent publication US20200377590A1 (Hoffmann-La Roche, published 2020).
Read-outs that look alike come from different tables or passages of the source.

T1: CD81 (UniProt P60033 1-236, limits assumed)
T1 construct: whole, on cells; also called CD81 receptor
T1 sequence (looked up): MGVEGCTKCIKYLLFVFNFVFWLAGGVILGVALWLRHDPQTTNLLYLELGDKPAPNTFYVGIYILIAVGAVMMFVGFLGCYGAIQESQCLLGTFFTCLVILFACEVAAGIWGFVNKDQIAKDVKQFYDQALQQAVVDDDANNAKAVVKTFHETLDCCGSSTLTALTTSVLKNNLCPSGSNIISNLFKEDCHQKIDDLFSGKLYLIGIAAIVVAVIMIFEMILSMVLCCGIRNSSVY


Assays:
Experiment in all cases: cell ELISA
[1] = molecular target: T1, CD81
Description: (§1) For the binding cell ELISA assay, HuH7-Rluc-H3 (positive cell line expressing CD81) and HuH7-Rluc-L1 (negative control cell line) were propagated in F-12 DMEM medium with 10% FCS at 37° C. and 5% CO₂. On day 1, the cells were trypsinized at approximately 90% confluence and resuspended at 4×10⁵ cells/mL. […] On day 2, the antibody samples to be tested were prepared in a separate polypropylene round bottom plate with a twofold desired concentration with a final volume of 120 μl. All of the assay samples were diluted in cell culture medium. […] After fixation, each well was washed 3 times with 200 μL PBS/0.05% Tween. The secondary incubation step for detection of bound anti-CD81 antibodies was performed for 2 h at room temperature on a reciprocal shaker. […] Each well was washed three times with 200 μL PBS/0.05% Tween to remove unbound antibodies. […] The absorbance was read using the ELISA Tecan reader at 450 nm with 620 nm reference wavelength.

[2] = molecular target: T1, CD81; remark: listed apart in the source
[3] = molecular target: T1, CD81; remark: listed apart in the source
Description: as §1

| Binder | ELISA data [1] | ELISA data [2] | ELISA data [3] |
| --- | --- | --- | --- |
| CD81K13 HC 06-hVH_1_3 / LC 07-hVK_1_27 (antibody, V domains shown, human constant region) VH: QVQLVQSGAEVKKPGASVKVSCKASGYTFKDSYLHWVRQAPGQRLEWMGRIDTGNGNVKFDPKFQGRVTITTDTSASTAYMELSSLRSEDTAVYYCAPYGYGFHSWGQGTLVTVSS VL: DIQMTQSPSSLSASVGDRVTITCRASENIYRTLAWYQQKPGKVPKLLIYAATTLASGVPSRFSGSGSGTDFTLTISSLQPEDVGTYYCQKFWGTPWTFGQGTKVEIK | 0.078 | – | – |
| CD81K13 HC 04-hVH_1_69 / LC 5b-hVK_1_39 (antibody, V domains shown, human constant region) VH: EVQLVESGGGLVQPGRSLRLSCTASGFNFKDSYLHWVRQAPGQGLEWMGRIDTGNGNVKFDPKFQGRVTITADESTSTAYMELSSLRSEDTAVYYCVPYGYGFHSWGQGTLVTVSS VL: DIQMTQSPSSLSASVGDRVTITCRASENIYRTLAWYQQKPGKAPKLLIYGATTLADGVPSRFSGSGSGTDFTLTISSLQPEDFATYYCQHFWGTPWTFGQGTKVEIK | 0.428 | – | – |
| CD81K13 HC 04-hVH_1_69 / LC 04-hVK_1_9 (antibody, V domains shown, human constant region) VH: EVQLVESGGGLVQPGRSLRLSCTASGFNFKDSYLHWVRQAPGQGLEWMGRIDTGNGNVKFDPKFQGRVTITADESTSTAYMELSSLRSEDTAVYYCVPYGYGFHSWGQGTLVTVSS VL: DIQLTQSPSFLSASVGDRVTITCRASENIYRTLAWYQQKPGKAPKLLIYAATTLASGVPSRFSGSGSGTEFTLTISSLQPEDFGTYYCQHFWGTPWTFGQGTKVEIK | 0.459 | – | – |
| CD81K13 HC 04-hVH_1_69 / LC 06-hVK_1_39 (antibody, V domains shown, human constant region) VH: EVQLVESGGGLVQPGRSLRLSCTASGFNFKDSYLHWVRQAPGQGLEWMGRIDTGNGNVKFDPKFQGRVTITADESTSTAYMELSSLRSEDTAVYYCVPYGYGFHSWGQGTLVTVSS VL: DIQMTQSPSSLSASVGDRVTITCRASENIYRTLAWYQQKPGKAPKLLIYAATTLASGVPSRFSGSGSGTDFTLTISSLQPEDFGTYYCQHFWGTPWTFGQGTKVEIK | 0.386 | – | – |
| CD81K13 HC 04-hVH_1_69 / LC 03-hVK_1_9 (antibody, V domains shown, human constant region) VH: EVQLVESGGGLVQPGRSLRLSCTASGFNFKDSYLHWVRQAPGQGLEWMGRIDTGNGNVKFDPKFQGRVTITADESTSTAYMELSSLRSEDTAVYYCVPYGYGFHSWGQGTLVTVSS VL: DIQLTQSPSFLSASVGDRVTITCRASENIYRTLAWYQQKPGKAPKLLIYAATTLASGVPSRFSGSGSGTEFTLTISSLQPEDFATYYCQHFWGTPWTFGQGTKVEIK | 0.52 | – | – |
| CD81K13 HC 04-hVH_1_69 / LC 05-hVK_1_39 (antibody, V domains shown, human constant region) VH: EVQLVESGGGLVQPGRSLRLSCTASGFNFKDSYLHWVRQAPGQGLEWMGRIDTGNGNVKFDPKFQGRVTITADESTSTAYMELSSLRSEDTAVYYCVPYGYGFHSWGQGTLVTVSS VL: DIQMTQSPSSLSASVGDRVTITCRASENIYRTLAWYQQKPGKAPKLLIYAATTLASGVPSRFSGSGSGTDFTLTISSLQPEDFATYYCQHFWGTPWTFGQGTKVEIK | 0.776 | – | – |
| CD81K13 HC 04-hVH_1_69 / LC 5b-hVK_1_39-GA (antibody, V domains shown, human constant region) VH: EVQLVESGGGLVQPGRSLRLSCTASGFNFKDSYLHWVRQAPGQGLEWMGRIDTGNGNVKFDPKFQGRVTITADESTSTAYMELSSLRSEDTAVYYCVPYGYGFHSWGQGTLVTVSS VL: DIQMTQSPSSLSASVGDRVTITCRASENIYRTLAWYQQKPGKAPKLLIYGATTLADGVPSRFSGSGSGTDFTLTISSLQPEDFATYYCQHFWGTPWTFGQGTKVEIK | 0.403 | – | – |
| CD81K13 HC 07-hVH_1_3 / LC 5b-hVK_1_39-GA (antibody, V domains shown, human constant region) VH: QVQLVQSGAEVKKPGASVKVSCKASGYTFKDSYLHWVRQAPGQGLEWMGRIDTGNGNVKFDPKFQGRVTITTDTSASTAYMELSSLRSEDTAVYYCAPYGYGFHSWGQGTLVTVSS VL: DIQMTQSPSSLSASVGDRVTITCRASENIYRTLAWYQQKPGKAPKLLIYGATTLADGVPSRFSGSGSGTDFTLTISSLQPEDFATYYCQHFWGTPWTFGQGTKVEIK | 0.363 | – | – |
| CD81K13 HC 07-hVH_1_3 / LC 03-hVK_1_9 (antibody, V domains shown, human constant region) VH: QVQLVQSGAEVKKPGASVKVSCKASGYTFKDSYLHWVRQAPGQGLEWMGRIDTGNGNVKFDPKFQGRVTITTDTSASTAYMELSSLRSEDTAVYYCAPYGYGFHSWGQGTLVTVSS VL: DIQLTQSPSFLSASVGDRVTITCRASENIYRTLAWYQQKPGKAPKLLIYAATTLASGVPSRFSGSGSGTEFTLTISSLQPEDFATYYCQHFWGTPWTFGQGTKVEIK | 0.331 | – | – |
| CD81K13 HC 07-hVH_1_3 / LC 05-hVK_1_39 (antibody, V domains shown, human constant region) VH: QVQLVQSGAEVKKPGASVKVSCKASGYTFKDSYLHWVRQAPGQGLEWMGRIDTGNGNVKFDPKFQGRVTITTDTSASTAYMELSSLRSEDTAVYYCAPYGYGFHSWGQGTLVTVSS VL: DIQMTQSPSSLSASVGDRVTITCRASENIYRTLAWYQQKPGKAPKLLIYAATTLASGVPSRFSGSGSGTDFTLTISSLQPEDFATYYCQHFWGTPWTFGQGTKVEIK | 0.4 | – | – |
| CD81K13 HC 07-hVH_1_3 / LC 04-hVK_1_9 (antibody, V domains shown, human constant region) VH: QVQLVQSGAEVKKPGASVKVSCKASGYTFKDSYLHWVRQAPGQGLEWMGRIDTGNGNVKFDPKFQGRVTITTDTSASTAYMELSSLRSEDTAVYYCAPYGYGFHSWGQGTLVTVSS VL: DIQLTQSPSFLSASVGDRVTITCRASENIYRTLAWYQQKPGKAPKLLIYAATTLASGVPSRFSGSGSGTEFTLTISSLQPEDFGTYYCQHFWGTPWTFGQGTKVEIK | 0.141 | – | – |
| CD81K13 HC 07-hVH_1_3 / LC 06-hVK_1_39 (antibody, V domains shown, human constant region) VH: QVQLVQSGAEVKKPGASVKVSCKASGYTFKDSYLHWVRQAPGQGLEWMGRIDTGNGNVKFDPKFQGRVTITTDTSASTAYMELSSLRSEDTAVYYCAPYGYGFHSWGQGTLVTVSS VL: DIQMTQSPSSLSASVGDRVTITCRASENIYRTLAWYQQKPGKAPKLLIYAATTLASGVPSRFSGSGSGTDFTLTISSLQPEDFGTYYCQHFWGTPWTFGQGTKVEIK | 0.269 | – | – |
| CD81K13 HC 07-hVH_1_3 / LC 07-hVK_1_27 (antibody, V domains shown, human constant region) VH: QVQLVQSGAEVKKPGASVKVSCKASGYTFKDSYLHWVRQAPGQGLEWMGRIDTGNGNVKFDPKFQGRVTITTDTSASTAYMELSSLRSEDTAVYYCAPYGYGFHSWGQGTLVTVSS VL: DIQMTQSPSSLSASVGDRVTITCRASENIYRTLAWYQQKPGKVPKLLIYAATTLASGVPSRFSGSGSGTDFTLTISSLQPEDVGTYYCQKFWGTPWTFGQGTKVEIK | 0.073 | – | – |
| CD81K13 HC 07-hVH_1_3 / LC 5b-hVK_1_39 (antibody, V domains shown, human constant region) VH: QVQLVQSGAEVKKPGASVKVSCKASGYTFKDSYLHWVRQAPGQGLEWMGRIDTGNGNVKFDPKFQGRVTITTDTSASTAYMELSSLRSEDTAVYYCAPYGYGFHSWGQGTLVTVSS VL: DIQMTQSPSSLSASVGDRVTITCRASENIYRTLAWYQQKPGKAPKLLIYGATTLADGVPSRFSGSGSGTDFTLTISSLQPEDFATYYCQHFWGTPWTFGQGTKVEIK | 0.448 | – | – |
| CD81K13 HC 04-hVH_1_69 / LC CD81K13 (antibody, V domains shown, human constant region) VH: EVQLVESGGGLVQPGRSLRLSCTASGFNFKDSYLHWVRQAPGQGLEWMGRIDTGNGNVKFDPKFQGRVTITADESTSTAYMELSSLRSEDTAVYYCVPYGYGFHSWGQGTLVTVSS VL: DIQMTQSPASLSVSVGETVTITCRASENIYRTLAWYLQKQGKSPQLLVYGATTLADGVPSRFSGSGSGTQYYLKINSLQSEDFGTYHCQHFWGTPWTFGGGTKVEIK | 0.776 | – | – |
| CD81K13 HC 04-hVH_1_69 / LC 1b-hVK_3_15 (antibody, V domains shown, human constant region) VH: EVQLVESGGGLVQPGRSLRLSCTASGFNFKDSYLHWVRQAPGQGLEWMGRIDTGNGNVKFDPKFQGRVTITADESTSTAYMELSSLRSEDTAVYYCVPYGYGFHSWGQGTLVTVSS VL: EIVMTQSPATLSVSPGERATLSCRASENIYRTLAWYQQKPGQAPRLLIYGATTLADGIPARFSGSGSGTEFTLTISSLQSEDFAVYYCQHFWGTPWTFGQGTKVEIK | 0.277 | – | – |
| CD81K13 HC 04-hVH_1_69 / LC 1c-hVK_3_15 (antibody, V domains shown, human constant region) VH: EVQLVESGGGLVQPGRSLRLSCTASGFNFKDSYLHWVRQAPGQGLEWMGRIDTGNGNVKFDPKFQGRVTITADESTSTAYMELSSLRSEDTAVYYCVPYGYGFHSWGQGTLVTVSS VL: EIVMTQSPATLSVSPGERATLSCRASENIYRTLAWYQQKPGQAPRLLIYGATTLADGIPARFSGSGSGTEFTLTISSLQSEDFGVYYCQHFWGTPWTFGQGTKVEIK | 0.395 | – | – |
| CD81K13 HC 04-hVH_1_69 / LC 01-hVK_3_15 (antibody, V domains shown, human constant region) VH: EVQLVESGGGLVQPGRSLRLSCTASGFNFKDSYLHWVRQAPGQGLEWMGRIDTGNGNVKFDPKFQGRVTITADESTSTAYMELSSLRSEDTAVYYCVPYGYGFHSWGQGTLVTVSS VL: EIVMTQSPATLSVSPGERATLSCRASENIYRTLAWYQQKPGQAPRLLIYGATTRATGIPARFSGSGSGTEFTLTISSLQSEDFGVYYCQHFWGTPWTFGQGTKVEIK | 0.513 | – | – |
| CD81K04 HC JA_GG-14-hVH_1_69-GA / LC GG-04-hVK_4_1 (antibody, V domains shown, human constant region) VH: QVQLVQSGAEVKKPGSSVKVSCKASGYTFSSSWMNWVRQAPGQGLEWMGRIYSGDGDAIYNGKFKGKATITADESTSTAYMELSSLRSEDTAVYYCAREGKTGDLLLRSWGQGTLVTVSS VL: DIVMTQSPDSLAVSLGERATINCKSSKSVSTSIYSYLAWYQQKPGQPPKLLIYYASTRESGVPDRFSGSGSGTDFTLTISSLQAEDVAVYYCQHSREFPYTFGQGTKLEIK | – | 0.107 | 0.12 |
| CD81K04 HC JA_GG-14-hVH_1_69-GA / LC JA_GG-07-hVK_7_3 (antibody, V domains shown, human constant region) VH: QVQLVQSGAEVKKPGSSVKVSCKASGYTFSSSWMNWVRQAPGQGLEWMGRIYSGDGDAIYNGKFKGKATITADESTSTAYMELSSLRSEDTAVYYCAREGKTGDLLLRSWGQGTLVTVSS VL: DIVLTQSPASLAVSPGQRATITCRASKSVSTSIYSYMHWYQQKPGQPPKLLIKYASNKDTGVPARFSGSGSGTDFTLTINPVEANDAANYYCLHSREFPYTFGQGTKLEIK | – | 0.107 | 0.125 |
